Results as given in patent publication US20230057263A1.

Target: human CD3 epsilon (CD3ε) (human) (UniProt P07766)
Assay: flow cytometry on human T cells

EC50 (read off the curve): 0.03 nM
Substance: OKT3 (antibody)
